These results are taken from the RNAGym collection of RNA variant scans (doi:10.7554/elife.80360).

B1: HDV Ribozyme (parent)
chain: GGCCGGCAUGGUCCCAGCCUCCUCGCUGGCGCCGGCUGGGCAACAUUCCGAGGGGACCGUCCCCUCGGUAAUGGCGAAUGGGACCCA

The variants in the data set derive from B1. Briefly: self-cleavage, relative activity (ratio to wild type); higher = more cleavage; co-transcriptional.
With UGCCGGCAUGGUCCCAGCCUCCUCGCUGGCGCCGGCUGGGCAACAUUCCGAGGGGACCGUCCCCUCGGAAAUGGCGAAUGGGACCCA, the self-cleavage is 0.332. Then GGCCGGCAUGGUCCCAGCCUCCUCGCUGGCGCCGGCUGGACAACAUUCCGAGGGGACCGUCCCCUUGGUAAUGGCGAAUGGGACCCA, with 0.892; and GGCCGGCAUGGUCCCAGCCUCCUCGCUGGCGCCGGUUGGGCAACAUUCCGAGGGGACCGUCCCCGCGGUAAUGGCGAAUGGGACCCA, with 0.582; and GGCCGGCAUGGUCCCAGCCUCCUCGCUGGCGCCGUCUGGGCAACACUCCGAGGGGACCGUCCCCUCGGUAAUGGCGAAUGGGACCCA, with 0.0415. As for GGCCGGCAUGGUCCCAGCCUCCUCGCUGGCGCCGGCUGGGCAACAUUCCGAGGGGACCGUACCCACGGUAAUGGCGAAUGGGACCCA, the self-cleavage was 0.774. Consider GGCCGGCAUGGUCCCCGCCUCCUCGCUGGCGCCGGCUGGGCAACAUUCCGAGGGGACCGUCCCCUCGGUAAGGGCGAAUGGGACCCA, for which the self-cleavage came out at 0.237. In the case of GGCCGGCAUGGUCCCAGCCUCCUCGCUGGCGCCGGUUGGGCAACAUUCCGAGGGGACCGUCCCCUCGGUAAUGGCGAAUGGGACACA, the self-cleavage stood at 0.732. Then GGCCGGCAUGGUCCCAGCCUCCUCGCUGGCGCCGGCUGGGCAACUUUCCGAGGGGACCGUCCCCCCGGUAAUGGCGAAUGGGACCCA, with 1.04; and GGCCGGCAUGGACCCAGUCUCCUCGCUGGCGCCGGCUGGGCAACAUUCCGAGGGGACCGUCCCCUCGGUAAUGGCGAAUGGGACCCA, with 0.217; and GGCCGGCAUGGUCCCAGCCGCCUCGCUGGCGCCGGCUGGGCAACAUUCCUAGGGGACCGUCCCCUCGGUAAUGGCGAAUGGGACCCA, with 0.18. In the case of GGCCGGCAUGGUCCCAGCCUCCUCGCUGGCGCCGGCUGGGCAGCCUUCCGAGGGGACCGUCCCCUCGGUAAUGGCGAAUGGGACCCA, the self-cleavage was 0.0504.

Regarding GGCCGGUAUGGUCCCAGCCUCCUCGCUGGCGCCGGCUGGGCAACAUUCCGAGGGGACCGUCCCCUCGGUAAUGGCGAACGGGACCCA, the self-cleavage amounted to 0.126.

In the case of GGCCGGCAUGGUCCCAGCCUCCUCGCUGGCGCCGGCUCGGCAACAUUCCGAGGGGACCGUCCCCACGGUAAUGGCGAAUGGGACCCA, the self-cleavage is 0.341. As to GGCCGGCAUGGUCCCAGCCUCCUCGCUGGCGCCGGUUGGGCAACUUUCCGAGGGGACCGUCCCCUCGGUAAUGGCGAAUGGGACCCA, the self-cleavage came to 0.658. Take GGCCGGCAUGGUCCCAGCCUCCUCGCUGGCGCCGGCUGGGCUACAUUCCGAGGGGACCGUCCCCUCGGUAAUGGCGAAUCGGACCCA: the self-cleavage was 0.166. Regarding GGCCGGCAUGGUCCCAGCCUCCUCGCUGGCGCCGGCUGGGCAACAUUCCGAGGGGACCGUCCUCUCGGUAAUGGCGAAUAGGACCCA, the self-cleavage came to 0.482. On to GGCCGGCAUGGUCCCAGCCUCCUCGCUGGCGCGGGCUGGGCAACAUUCCGAGGGGACGGUCCCCUCGGUAAUGGCGAAUGGGACCCA, for which the self-cleavage was 0.185. Under GGCCGGCAUGGUCCCAGCCUCCGCGCUGGCGCCGGCUGGGCAACAUUCCGAGAGGACCGUCCCCUCGGUAAUGGCGAAUGGGACCCA stands 0.306; under GGCCGGCAUGGUCCCAGCCUCCUCGCUGGCGCCGGCUGGGCAACAUUCCGAGGGGACCGUCCCCUCGGUAAUGGCGAAUGAGACCGA, 0.45. Under GGCCGGCAUGGUCGCAGCCUCCUCGCUGGCGCCGGCUGGGCAACAUUCCGAGGGGACCGUCCCCUCGGUAAUGGCGAAUGGGACACA stands 0.166.

As for GGCGGGCAUGGUCCCAGCCUCCUCGCUGGCGCCGGCUGGGCAACAUUCCGAGGGGACCGUCCCCUCGGUAAUGGCGAAUGGGACCGA, the self-cleavage was 0.249. Take GGCCGGCAUGGUCCCAGCUUCCUCGCUGGCGCCGGCAGGGCAACAUUCCGAGGGGACCGUCCCCUCGGUAAUGGCGAAUGGGACCCA: the self-cleavage stood at 0.0936. On to GGCCGGCAUGGUCCCAGCCUCCUCGCUGGCGCCGGUUGGGCAACAUUCCGAGGGGACCGUCCCAUCGGUAAUGGCGAAUGGGACCCA, for which the self-cleavage amounted to 0.482. Take GGACGGCAUGGUCCCAGCCUCCUCGCUGGCGCCGGCUGGGCAACAUUCCGAGGGGACCGUCCCCUCGGUUAUGGCGAAUGGGACCCA: the self-cleavage is 0.437. On to GGCCGGCAUGGUCCCAGCCUCCUCGCUGGCGCCCGCUGGGCAACAUUCCGUGGGGACCGUCCCCUCGGUAAUGGCGAAUGGGACCCA, for which the self-cleavage amounted to 0.141. On to GGCCGGCAUGGACCCAGCCUCCUCGCGGGCGCCGGCUGGGCAACAUUCCGAGGGGACCGUCCCCUCGGUAAUGGCGAAUGGGACCCA, for which the self-cleavage is 0.237. Under GGCCGGGAUGGUCCCAGCCUCCUCGCUGGCGCCGGCUGGGCAACAUUCCGAGGGGACCGUCCCCUCGGUAAUGGCGAUUGGGACCCA stands 0.0791.

Turning to GGCCGGCAUGGUCCCAGCCUCCUCGCUGGGGCCGGCUGGGCAACAUUCCGAGGGGACCGUCCCCUCGGUAAUGGCUAAUGGGACCCA, the self-cleavage amounted to 0.109.

Consider GGCCGGCAUGGUCCCAGCCUCCACGCUGGCGCCGGCUGGGCAACGUUCCGAGGGGACCGUCCCCUCGGUAAUGGCGAAUGGGACCCA, for which the self-cleavage is 1.15. Regarding GGCUGGCAUGGUCCCAGCCUCCUCGCUGGCGCCGGCUGGGCAACAUUCCGAGGGGACCGUCCCGUCGGUAAUGGCGAAUGGGACCCA, the self-cleavage was determined as 0.538. Turning to GGCCGGCAUGGUCCCAGCCUCCUCGCUGGUGCCGGCUGGGCAACAUUCCGAGGGGACCGUCCCCCCGGUAAUGGCGAAUGGGACCCA, the self-cleavage was 0.78.

Take GGCCGGCAUGGUCCCAGCCUCCUCGCUGGCGCCGGCUGGGCAACAUUUCGAGGGGACCGUCCCCUCGGUAAUGGCGAAUGGGGCCCA: the self-cleavage stood at 0.671.
